From the supplement of paper PMC11246515
± gives the standard deviation of the averaged measurements.

Assay: total protein half-life in vivo (active degradation + dilution); higher = more stable protein
[1] = E. coli NCM3722 delta-clpP delta-lon delta-hslV, growth: N-lim chemostat, doubling time 6 h
[2] = E. coli NCM3722 delta-clpP, growth: N-lim chemostat, doubling time 6 h
[3] = E. coli NCM3722 delta-lon, growth: N-lim chemostat, doubling time 6 h
[4] = E. coli NCM3722 delta-smpB, growth: N-lim chemostat, doubling time 6 h
[5] = wild type E. coli NCM3722, growth: C-lim chemostat, doubling time 3 h
[6] = wild type E. coli NCM3722, growth: C-lim chemostat, doubling time 6 h
[7] = wild type E. coli NCM3722, growth: C-lim chemostat, doubling time 12 h
[8] = wild type E. coli NCM3722, growth: N-lim chemostat, doubling time 6 h
[9] = wild type E. coli NCM3722, growth: N-lim chemostat, doubling time 12 h
[10] = wild type E. coli NCM3722, growth: P-lim chemostat, doubling time 6 h
[11] = wild type E. coli NCM3722, growth: P-lim chemostat, doubling time 12 h
[12] = E. coli NCM3722 delta-hslV, growth: N-lim chemostat, doubling time 6 h

Row | Sequence | total protein half-life in vivo [1] [h] | total protein half-life in vivo [2] [h] | total protein half-life in vivo [3] [h] | total protein half-life in vivo [4] [h] | total protein half-life in vivo [5] [h] | total protein half-life in vivo [6] [h] | total protein half-life in vivo [7] [h] | total protein half-life in vivo [8] [h] | total protein half-life in vivo [9] [h] | total protein half-life in vivo [10] [h] | total protein half-life in vivo [11] [h] | total protein half-life in vivo [12] [h]
1 | MHSTEVQAKPLFSWKALGWALLYFWFFSTLLQAIIYISGYSGTNGIRDSLLFSSLWLIPVFLFPKRIKIIAAVIGVVLWAASLAALCYYVIYGQEFSQSVLFVMFETNTNEASEYLSQYFSLKIVLIALAYTAVAVLLWTRLRPVYIPKPWRYVVSFALLYGLILHPIAMNTFIKNKPFEKTLDNLASRMEPAAPWQFLTGYYQYRQQLNSLTKLLNENNALPPLANFKDESGNEPRTLVLVIGESTQRGRMSLYGYPRETTPELDALHKTDPNLTVFNNVVTSRPYTIEILQQALTFANEKNPDLYLTQPSLMNMMKQAGYKTFWITNQQTMTARNTMLTVFSRQTDKQYYMNQQRTQSAREYDTNVLKPFQEVLNDPAPKKLIIVHLLGTHIKYKYRYPENQGKFDGNTDHVPPGLNAEELESYNDYDNANLYNDHVVASLIKDFKAANPNGFLVYFSDHGEEVYDTPPHKTQGRNEDNPTRHMYTIPFLLWTSEKWQATHPRDFSQDVDRKYSLAELIHTWSDLAGLSYDGYDPTRSVVNPQFKETTRWIGNPYKKNALIDYDTLPYGDQVGNQ [P0CB39] | 6.57 ± 0.15 | 7 ± 0.21 | 6.52 ± 1.3 | 6.49 ± 0.29 | 3.504 ± 0.028 | 6.41 ± 0.11 | 13 ± 0.88 | 6.03 ± 0.069 | 13 ± 0.74 | 6.4 ± 0.18 | 13.1 ± 0.49 | –
2 | MKALARFGKAFGGYKMIDVPQPMCGPEDVVIEIKAAAICGADMKHYNVDSGSDEFNSIRGHEFAGCIAQVGEKVKDWKVGQRVVSDNSGHVCGVCPACEQGDFLCCTEKVNLGLDNNTWGGGFSKYCLVPGEILKIHRHALWEIPDGVDYEDAAVLDPICNAYKSIAQQSKFLPGQDVVVIGTGPLGLFSVQMARIMGAVNIVVVGLQEDVAVRFPVAKELGATAVVNGSTEDVVARCQQICGKDNLGLVIECSGANIALKQAIEMLRPNGEVVRVGMGFKPLDFSINDITAWNKSIIGHMAYDSTSWRNAIRLLASGAIKVKPMITHRIGLSQWREGFDAMVDKTAIKVIMTYDFDE | – | – | 4.04 | – | 1.33 | 2.23 | 3.7 ± 0.86 | – | – | – | 5.73 | –
3 | MSDTKRNTIGKFGLLSLTFAAVYSFNNVINNNIELGLASAPMFFLATIFYFIPFCLIIAEFVSLNKNSEAGVYAWVKSSLGGRWAFITAYTYWFVNLFFFTSLLPRVIAYASYAFLGYEYIMTPVATTIISMVLFAFSTWVSTNGAKMLGPITSVTSTLMLLLTLSYILLAGTALVGGVQPADAITVDAMIPNFNWAFLGVTTWIFMAAGGAESVAVYVNDVKGGSKSFVKVIILAGIFIGVLYSVSSVLINVFVSSKELKFTGGSVQVFHGMAAYFGLPEALMNRFVGLVSFTAMFGSLLMWTATPVKIFFSEIPEGIFGKKTVELNENGVPARAAWIQFLIVIPLMIIPMLGSNTVQDLMNTIINMTAAASMLPPLFIMLAYLNLRAKLDHLPRDFRMGSRRTGIIVVSMLIAIFAVGFVASTFPTGANILTIIFYNVGGIVIFLGFAWWKYSKYIKGLTAEERHIEATPASNVD | – | – | – | – | – | 3.83 | – | – | – | – | – | –
4 | MTENIHKHRILILDFGSQYTQLVARRVRELGVYCELWAWDVTEAQIRDFNPSGIILSGGPESTTEENSPRAPQYVFEAGVPVFGVCYGMQTMAMQLGGHVEASNEREFGYAQVEVVNDSALVRGIEDALTADGKPLLDVWMSHGDKVTAIPSDFITVASTESCPFAIMANEEKRFYGVQFHPEVTHTRQGMRMLERFVRDICQCEALWTPAKIIDDAVARIREQVGDDKVILGLSGGVDSSVTAMLLHRAIGKNLTCVFVDNGLLRLNEAEQVLDMFGDHFGLNIVHVPAEDRFLSALAGENDPEAKRKIIGRVFVEVFDEEALKLEDVKWLAQGTIYPDVIESAASATGKAHVIKSHHNVGGLPKEMKMGLVEPLKELFKDEVRKIGLELGLPYDMLYRHPFPGPGLGVRVLGEVKKEYCDLLRRADAIFIEELRKADLYDKVSQAFTVFLPVRSVGVMGDGRKYDWVVSLRAVETIDFMTAHWAHLPYDFLGRVSNRIINEVNGISRVVYDISGKPPATIEWE | 5.07 ± 0.67 | 4.31 ± 0.18 | 4.39 ± 0.049 | 4.28 ± 0.17 | 3.24 ± 0.23 | 5.93 ± 0.12 | 9.65 ± 0.23 | 4.17 ± 0.46 | 6.57 ± 0.082 | 6.09 ± 0.26 | 12.3 ± 0.98 | 4.02 ± 0.45
5 | MTTRQHSSFAIVFILGLLAMLMPLSIDMYLPALPVISAQFGVPAGSTQMTLSTYILGFALGQLIYGPMADSFGRKPVVLGGTLVFAAAAVACALANTIDQLIVMRFFHGLAAAAASVVINALMRDIYPKEEFSRMMSFVMLVTTIAPLMAPIVGGWVLVWLSWHYIFWILALAAILASAMIFFLIKETLPPERRQPFHIRTTIGNFAALFRHKRVLSYMLASGFSFAGMFSFLSAGPFVYIEINHVAPENFGYYFALNIVFLFVMTIFNSRFVRRIGALNMFRSGLWIQFIMAAWMVISALLGLGFWSLVVGVAAFVGCVSMVSSNAMAVILDEFPHMAGTASSLAGTFRFGIGAIVGALLSLATFNSAWPMIWSIAFCATSSILFCLYASRPKKR | 7.89 | – | – | – | – | – | – | – | – | 6.0641 ± 0.0035 | 11.8 | –
6 | MHYQPKQDLLNDRIILVTGASDGIGREAAMTYARYGATVILLGRNEEKLRQVASHINEETGRQPQWFILDLLTCTSENCQQLAQRIAVNYPRLDGVLHNAGLLGDVCPMSEQNPQVWQDVMQVNVNATFMLTQALLPLLLKSDAGSLVFTSSSVGRQGRANWGAYAASKFATEGMMQVLADEYQQRLRVNCINPGGTRTAMRASAFPTEDPQKLKTPADIMPLYLWLMGDDSRRKTGMTFDAQPGRKPGISQ | 4.5 ± 0.46 | 4.29 ± 0.28 | 4.56 ± 0.44 | 3.62 ± 0.049 | 2.99 ± 0.043 | 5.77 ± 0.044 | 9.39 ± 1.9 | 3.68 ± 0.25 | 5.92 ± 0.058 | 6.22 ± 0.24 | 11.3 ± 0.24 | 3.87 ± 0.11
7 | MEALGMIETRGLVALIEASDAMVKAARVKLVGVKQIGGGLCTAMVRGDVAACKAATDAGAAAAQRIGELVSVHVIPRPHGDLEEVFPIGLKGDSSNL [P0ABF4] | 4.35 ± 0.68 | 7.77 | 4.82 ± 0.61 | 4.98 ± 0.22 | 2.59 ± 0.7 | 5.83 ± 0.41 | 11.5 ± 1.5 | 4.8 ± 0.3 | 7.48 ± 0.57 | 5.28 ± 0.062 | 12.1 ± 1.1 | 4.24 ± 0.36
